For data set [1] the following is noted: human, in vivo; cited from earlier work.
Data set [2] has as its system primary human dermal skin fibroblasts. The experiment in a line: Resazurin reduction (alamarBlue) viability assay, skin fibroblasts. The class given is cell-based. The protocol: (§1) Resazurin reduction assay (Fisher Scientific) was used to evaluate the potential cytotoxicity of antifibrinolytic agents toward primary human endothelial cells and skin fibroblasts. Phosphate buffer that was used to dissolve the samples was included as negative control. The assay is based on reduction of the non-fluorescent dye resazurin, to the highly fluorescent resorufin by viable cells. […] Briefly, cells in 96-well cell culture plates were treated with different concentrations of antifibrinolytic compounds (as described above). After 24 hours resazurin reagent was added to each well and the plates were incubated at 37° C. for 4 hours. Fluorescence was measured by the FLUOstar Omega Microplate Reader (BMG Labtech) using an excitation wavelength of 544 nm and an emission wavelength of 590 nm. Each assay was done in duplicate, with three replicates each. The viability was evaluated based on comparison with untreated cells.
(Resazurin is reduced to fluorescent resorufin, in cell work by metabolically active cells.)

In data set [3] the test system is HUVEC. The settings on record: 24 hours; 30 μM KD1TM, 30 μM BPTI, 60 mM EACA, 30 mM TXA. The text has this: (§2) Primary human pooled umbilical vein endothelial cells (HUVEC) were obtained from ATCC. The cells were maintained in Vascular Cell Basal Medium (ATCC), supplemented with the Endothelial Cell Growth Kit-BBE (ATCC) and Penicillin-Streptomycin-Amphotericin B (ATCC). Primary human dermal skin fibroblasts were obtained from LONZA and maintained in Fibroblast Basal Medium (FBMTM, LONZA), supplemented with a cocktail of growth factors, fetal bovine serum and antibiotics (FGMTM-2 SingleQuots™, LONZA). All cells were maintained in a humidified 5% C02 atmosphere at 37° C. and were passaged once they reached 80% confluence. All experiments were performed with cells in the logarithmic growth phase.
(§3) For toxicity studies, cells were seeded into 96-well or 24-well cell culture plates at 3,500 cells/cm2 and were used for experiments once they reached 80% confluence.
(§4) Cell toxicity and cell death was evaluated with the CellTox™ Green Cytotoxicity Assay (Promega). This assay measures changes in membrane integrity that occur as a result of cell death. The dye used in the system is excluded from viable cells but binds to DNA in compromised cells, which results in a fluorescent signal. We measured cell death in HUVEC and primary fibroblasts treated with antifibrinolytic agents at 4 concentrations (as indicated above) with triplicates per concentration in 24-well plates after 24 hours of exposure. Hoechst (Thermo Fisher Scientific) was used to stain all nuclei. Images of cells were captured using an inverted microscope (Nicon; Edipse T2000 TE). Green fluorescent cells (FITC filter) and Hoechst stained cells (DAPI filter) were counted using Image J software.

The subject of data set [4] is primary human dermal skin fibroblasts. The settings on record: 24 hours; 30 μM KD1TM, 30 μM BPTI, 60 mM EACA, 30 mM TXA.
Description: as §2, §3, §4

Data set [5] has as its system plasmin induced lysis of clot formed in whole blood. As to the kind of experiment: Thromboelastography, plasmin induced clot lysis in whole blood. The class given is biochemical, human. The settings on record: for G / LY30 / LY60 / MA: NHB + […] plasmin. The protocol:
Plasmin and CaCl2) were added last to initiate simultaneous clotting and fibrinolysis. […] The thromboelastograph was calibrated each day and each inhibitor concentration was tested in duplicate. TEG Analytical Software (version 4.2.2; Haemonetics Corporation, Braintree, MA) was used to calculate the time to clot initiation (R), maximal clot strength (maximal amplitude (MA), which was directly related to the shear elastic modulus strength, G), and percent lysis 60 minutes after MA (LY60) (42).

For data set [6], the system named is HUVEC. The class given is cell-based, human. The protocol: as §1
The target in data set [7] is T1, human plasmin (human, UniProt P00747 97-810).
T1 construct: Plasmin is a two-chain enzyme derived from plasminogen; also called Pm
As to the kind of experiment: amidolytic inhibition of 3 nM plasmin, tight-binding equation. The protocol:
All reactions were carried out in TBS, pH 7.5 (50 mM Tris-HCL, pH 7.5, containing 100 mM NaCl), containing 0.1 mg bovine serum albumin/ml (TBS/BSA) and 2 mM Ca2+(TBS/BSA/Ca2+, pH 7.5). […] The inhibition constant, K* was determined using the nonlinear regression data analysis program Grafit.

For data set [8], the target named is T1, human plasmin. The experiment in a line: cell-based or functional assay.
In data set [9] the target is T1, human plasmin. The experiment in a line: residual activity of 3 nM plasmin (percent fractional activity by the legend; the axis is labelled % Pm Inhibition), substrate S-2251 [A].

The values that follow come from US20230331817A1 (The Regents of the University of California, priority 2020, published 2023).

T1 sequence (P00747 97-810 limits assumed): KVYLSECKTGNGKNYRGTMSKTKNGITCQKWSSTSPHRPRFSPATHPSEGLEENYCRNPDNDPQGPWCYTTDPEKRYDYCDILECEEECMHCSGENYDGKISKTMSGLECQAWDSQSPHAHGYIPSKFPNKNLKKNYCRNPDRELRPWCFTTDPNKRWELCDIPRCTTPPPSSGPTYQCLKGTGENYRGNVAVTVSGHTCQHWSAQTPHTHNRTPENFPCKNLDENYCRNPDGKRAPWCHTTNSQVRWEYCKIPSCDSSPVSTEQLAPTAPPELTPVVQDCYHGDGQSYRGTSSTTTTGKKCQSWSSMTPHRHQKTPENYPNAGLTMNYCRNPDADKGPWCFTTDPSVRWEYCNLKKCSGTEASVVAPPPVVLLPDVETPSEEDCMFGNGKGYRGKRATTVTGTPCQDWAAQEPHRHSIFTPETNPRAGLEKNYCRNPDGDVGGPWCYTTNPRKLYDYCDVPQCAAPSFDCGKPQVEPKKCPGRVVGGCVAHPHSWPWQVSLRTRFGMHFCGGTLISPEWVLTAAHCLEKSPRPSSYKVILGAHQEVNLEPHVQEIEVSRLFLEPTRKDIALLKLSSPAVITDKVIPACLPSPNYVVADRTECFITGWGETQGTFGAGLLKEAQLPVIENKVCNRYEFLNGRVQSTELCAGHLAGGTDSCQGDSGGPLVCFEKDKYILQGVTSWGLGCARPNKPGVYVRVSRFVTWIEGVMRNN

As for Ecallantide, in data set [1], the half-life is on record as roughly 120 min.

In the case of `NCCCCCC(=O)O` [EACA, ε-aminocaproic acid], the “Fibroblast cell viability (FIG. 5)” value in data set [2] was “not significantly different from the untreated cells”. The “HUVEC cytotoxicity, CellTox green (FIG. 7)” value with HUVEC [3] is on record as “only observed in skin fibroblasts”. Besides, the “Fibroblasts cytotoxicity, CellTox green (FIG. 8)” value in data set [4] is “significant toxicity”. In data set [5], the G was found to be 2388.0 ± 49.6 dyn/cm^2. Also, in [5] (inhibitor 200 μM), the G was determined as 153.25 ± 9.8 dyn/cm^2, the LY30 is 0%, the LY60 turned out to be 0% and the MA is reported as 3.20 ± 0.71 mm. In data set [5] (inhibitor 500 μM), the G worked out at 747.75 ± 14.8 dyn/cm^2, the LY30 came to 0%, the LY60 came out at 0% and the MA was 13.15 ± 0.64 mm. In addition, in data set [5] (inhibitor 1000 μM), the G is listed as 1070.1 ± 35.0 dyn/cm^2, the LY30 is listed as 0%, the LY60 worked out at 16.8 ± 0.35% and the MA was 16.40 ± 0.28 mm. Moreover, in [5] (inhibitor 3000 μM), the LY30 worked out at 0%, the LY60 is listed as 0.6 ± 0.04% and the MA is 32.60 ± 0.71 mm. Besides, in data set [5] ([…] plasmin, 3 mM EACA), the “G restored, relative to blood without plasmin” value is reported as roughly 50% and the “MA restored, relative to blood without plasmin” value is listed as roughly 67%. Also, in the data set on HUVEC [6], the “HUVEC viability (FIG. 4)” value is given as “not significantly different from the untreated cells”.

B1: KD1-WT (other)
chain: DAAQEPTGNNAEICLLPLDYGPCRALLLRYYYDRYTQSCRQFLYGGCEGNANNFYTWEACDDACWRIEKVPKV
notes: also called Wild-type KD1; E. coli expressed KD1-WT (IIa cleavage site); not shown: N-terminal residues left from the IIa (thrombin) cleavage site
B1 registered an inhibition constant Ki in the data set with human plasmin [7] of 6 nM. In addition, in the data set with human plasmin [8], the “TEG G, 1 µM inhibitor, whole blood + 1.5 µM plasmin” value worked out at 79 dyn/cm^2; the “TEG G, 2 µM inhibitor, whole blood + 1.5 µM plasmin” value worked out at 108 dyn/cm^2; the “TEG G, 3 µM inhibitor, whole blood + 1.5 µM plasmin” value stood at 180 dyn/cm^2; the “TEG G, 5 µM inhibitor, whole blood + 1.5 µM plasmin” value is 818 dyn/cm^2. In the data set with human plasmin [8], the “TEG G, 7.5 µM inhibitor, whole blood + 1.5 µM plasmin” value amounted to 820 dyn/cm^2; the “TEG LY30, 1 µM inhibitor, whole blood + 1.5 µM plasmin” value was 100%; the “TEG LY30, 2 µM inhibitor, whole blood + 1.5 µM plasmin” value is 100%; the “TEG LY30, 3 µM inhibitor, whole blood + 1.5 µM plasmin” value was found to be 100%. Further, in the data set with human plasmin [8], the “TEG LY30, 5 µM inhibitor, whole blood + 1.5 µM plasmin” value stood at 6.5%; the “TEG LY30, 7.5 µM inhibitor, whole blood + 1.5 µM plasmin” value was 0%; the “TEG LY60, 1 µM inhibitor, whole blood + 1.5 µM plasmin” value came out at 100%; the “TEG LY60, 2 µM inhibitor, whole blood + 1.5 µM plasmin” value came out at 100%. In the data set with human plasmin [8], the “TEG LY60, 3 µM inhibitor, whole blood + 1.5 µM plasmin” value worked out at 100%; the “TEG LY60, 5 µM inhibitor, whole blood + 1.5 µM plasmin” value amounted to 22.4%; the “TEG LY60, 7.5 µM inhibitor, whole blood + 1.5 µM plasmin” value worked out at 0%; the “TEG MA, 1 µM inhibitor, whole blood + 1.5 µM plasmin” value is 1.45 mm. Moreover, in the data set with human plasmin [8], the “TEG MA, 2 µM inhibitor, whole blood + 1.5 µM plasmin” value amounted to 2.23 mm; the “TEG MA, 3 µM inhibitor, whole blood + 1.5 µM plasmin” value turned out to be 3.49 mm; the “TEG MA, 5 µM inhibitor, whole blood + 1.5 µM plasmin” value was determined as 13.9 mm; the “TEG MA, 7.5 µM inhibitor, whole blood + 1.5 µM plasmin” value was 11.7 mm. For the same molecule, in the data set with human plasmin [9], the “IC50 (read off the curve)” value was roughly 9 nM.

B2: KD1-Y11T/L17R-KT (E. Coli) (designed binder)
chain: MGSSHHHHHHSSGHIDDDDKNAEICLLPLDTGPCRARLLRYYYDRYTQSCRQFLYGGCEGNANNFYTWEACDDACWRIEK
notes: also called KD1DM; E. coli expressed KD1-Y11T/L17R-KT
Molecule B2 returned an inhibition constant Ki with human plasmin [7] of 0.59 nM. The “IC50 (read off the curve)” value with human plasmin [9] fell in the range of 2 to 3 nM.

The half-life is the time needed for the level to fall by half in the phase considered. As a reminder, the Ki is a measure of affinity in units of concentration, obtained from inhibition or displacement.
